From patent publication US20030032072A1, “Method for the assessment of allergenicity” (Novozymes A/S, priority 1999, published 2003)

B1: lipase: triacylglycerol acylhydrolase (lipase) E.C. 3.1.1.3 from Humicola lanuginosa (protein, UniProt O59952 23-291, looked up)
Lipase: EVSQDLFNQFNLFAQYSAAAYCGKNNDAPAGTNITCTGNACPEVEKADATFLYSFEDSGVGDVTGFLALDNTNKLIVLSFRGSRSIENWIGNLNFDLKEINDICSGCRGHDGFTSSWRSVADTLRQKVEDAVREHPDYRVVFTGHSLGGALATVAGADLRGNGYDIDVFSYGAPRVGNRAFAEFLTVQTGGTLYRITHTNDIVPRLPPREFGYSHSSPEYWIKSGTLVPVTRNDIVKIEGIDATGGNNQPNIPDIPAHLWYFGLIGTCL

Experiments:
[1] = tested on: Human lung epithelial cells (BEAS-2B, ATCC # CRL-9609); assay: Bioassay: extracellular cytokine expression of epithelial cells, assessed by ELISA; type: cell-based
Method: Human lung epithelial cells (BEAS-2B, ATCC # CRL-9609) were inoculated in a culture flask (NUNC), precoated with 2% (vol/vol) Ultroser G in water, at 1500 to 3000 cells per cm^2, and were grown at 37° C. in LHC-9 medium containing 2% (vol/vol) Ultroser G and 5% CO2.
The cells were subcultured before reaching confluence. The medium was removed, and fresh 0.5% polyvinylpyrrolidone (PVP) in trypin (0.25% (wt/vol))-EDTA (0.03% (wt/vol)) solution was added until cells detached (usually after 5-10 minutes at room temperature). LHC-9 medium was added, and cells were collected by centrifugation (300× g for 15 minutes), and resuspended in LHC-9 medium containing 2% (vol/vol) Ultroser G. Finally, cells were dispensed into precoated flasks (NUNC) at a density of 1500 to 3000 cells per cm^2.
When enough cells were available to perform the planned number of assays, cells were trypinated, and were transferred to a 24-well culture plate (NUNC) (1×10^5 cells per well). Incubation was for 24 hours at 37° C. in LHC-9 medium containing 2% (vol/vol) Ultroser G and 5% CO2. […]
The extracellular expression of selected cytokines was assessed by ELISA (R&D Systems), as a function of incubation time and protein concentration. […] A calibration curve was included each time, to include quantification of the detected cytokine levels, as well as to assess assay reproducibility.

[2] = tested on: Brown Norway rats; assay: Intratracheal immunization of Brown Norway rats, IgE ELISA; type: in vivo, rat; details: rats immunized intratracheally, IgE detected by ELISA, Example 5
Method: Twenty intratracheal immunizations were performed weekly with 100 microliters 0.9% (wt/vol) NaCl (control group), or 100 microliters of the protein dilution mentioned before. Each group contained 10 rats. Blood samples (2 ml) were collected from the eye one week after every second immunization. Serum was obtained by blood clothing, and centrifugation.
The IgE ELISA was performed by using the following: Buffers and Solutions:
Mouse anti-Rat IgE was diluted 200×in PBS (5 micrograms/ml). 100 microliters were added to each well. The plates were coated overnight at 4° C.
Unspecific adsorption was blocked by incubating each well for 1 hour at room temperature with 200 microliters blocking buffer. The plates were washed 3×with 300 microliters washing buffer.
Unknown rat sera and a known rat IgE solution were diluted in dilution buffer: Typically 10×, 20×and 40×for the unknown sera, and ½ dilutions for the standard IgE starting from 1 microgram/ml. 100 microliters were added to each well. […]
The reaction was stopped by adding 100 microliters H2SO4. The plates were read at 492 nm with 620 nm as reference.
Rats were immunized intratracheally with unmodified and modified protease, and the protease specific IgE levels were detected by ELISA. The IgE levels detected throughout the study were integrated, and compared relative to the levels observed in rats immunized with unmodified enzyme.

Row | Molecule | effect on cytokine production ([1]; PMSF (10 mM) and its hydrolysis products, diluted about 1000× before being applied on the cells) | level of all cytokines (normalized cytokine levels, FIG. 5) ([1]; epithelial cell assay, Example 5) | IgE level in rats [2]
1 | O=S(=O)(F)Cc1ccccc1 [PMSF, reference compound] | no detectable effect | – | –
2 | B1 | – | high level | significantly lower IgE level
